Measurements from patent US20250188153A1.

B1: MPV456 (antibody, V domains shown)
VH: QVQLQESGPGVVKPSGTLSLTCGVSGGSISSSYWWSWVRQPPGKGLEWIGEIYHSGSTNYNPSLKRRVTISVDKSKNQFSLKVTSVTAADTAVYYCARGPIQYYDILTEERVGYCDYWGQGTLVTVSS
VL: TLSASVGDRVTITCRASQSISSWLAWFQQKPGKAPKLLIYKTSSLESGVPSRFSGSGSGTEFTLTISSLQPDDFATYYCQEYNSYSRTFGQGTKVEIK
B2: MPV489 (antibody, V domains shown)
VH: EVQLLESGGGLVQPGGSLRLSCAASKFTFNNYEMNWLRQAPGKGLEWVSSISSSGDTIHNADSVKGRFIISRDNAKNSLHLQMNGLRAEDTAVYYCARAGSGWAYDAFDIWGLGTMVTVSS
VL: LSASVGDRVTITCRASQSISSFLNWYQQKPGKAPKLLMYAASSLPVGVPSRFSGSGSGPEYTLTISNLQPEDFATYYCQQGYSSPPTFGGGTRLEVK
B3: MPV86 (antibody, V domains shown)
VH: QVQLVQSGAEVKKPGSSVKVSCKASGDTFNDVALSWVRQAPGQGLEWLGGIIPFFGTANYAQRFQDRVTITADASTSTAYLELGGLRSEDTAVYYCARGWSCRNITCFMMGYYFYIMDVWGQGTLVTVSS
VL: LSLSPGERATLSCRASQSVGNFLAWYQQKPGQTPRLLIQDASNRATGIPARFSGTGSGTDFTLTISSLEPEDFAVYYCQQRSNWPPTFGPGTKVDIK
B4: MPV481 (antibody, V domains shown)
VH: EVQLVQSGGGLVKPGGSLRLSCAASGLPFNNAWMNWVRQAPGKGLEWVGRIKSKIDGGTTEYAAPVKGRFTISRDDSENTLYLQMNSLRTEDTAVYYCTTEYYALLSGNYSDCWGQGTLVTVSS
VL: DIVMTQSPFSLSLSPGERATLSCRASQSIKRAYLGWYQQKPGQAPRLLIYGASNRATGIPDRFSGSGSGTDFTLTISRLEPEDFAVYYCQQYGDSPGGSFGQGTKLEIR
B5: MPV491 (antibody, V domains shown)
VH: QVQLQESGPGLVKSSQTLSLTCTVSGGSISSVTSHWTWIRQHPGKGLEWIGYIFSSGTTYYSPSLRSRLTMSVDTSKNQFSLQLSSVTAADTAMYYCARGIYCGDSCYKGTDYWGRGTLVTVSS
VL: IRLMTQTPVTLPVTPGEPASISCRSSQSLLHSNGYNYLDWYLQKPGQSPQLLIYRGSTRASGVPDRFSGSGSGTEFTLKISRVEAEDVGVYYCMQGLQTPYTFGQGTKLESR
B6: MPV414 (antibody, V domains shown)
VH: QVQLVQSGPEVKKPGSSVMVSCKTSGGNFNNFAISWVRQAPGQGLEWMGGIVPIFGTANYAQKSQDRVTITADPSSSTAYLQLSSLTSDDTAIYYCARDLGRSSNYYYYSVFESWGQGTLVTVSS
VL: DIVMTQSPATLSLSPGERATLSCRASQSVGDKLAWYQQKPGQAPRLLIYGASTRATDIPARFSGSGSGTEFTLTVSSLQPEDFAVYYCQQYENWPPITFGQGTRLEIK
B7: MPV467 (antibody, V domains shown)
VH: EVQLVESGGGVVRPGTSLRVSCAAFDFNFRDYGMHWVRQAPGKGLEWVAGIWYDGSNKDYADSVKGRFTISRDNSQNTLYLQMNSLRVEDTAVYYCARDPRTHREGALSHFDSWGQGTLVTVSS
VL: PNELTQDPAVSVALGQTVRITCQGDSLRNYFAGWYQQKPGQAPLLVLYGENIRPSGIPDRFSGSSSGNTVSLTITGAQAEDEADYYCNSRDNSGNHWVFGGGTRLTVL
B8: MPV485 (antibody, V domains shown)
V domain 1: EVQLQEPGPGLVKPSETLSLTCTVSGGSISSTNSFWGWVRQPPGKGLEWIGSIYYSGTTYYNSSLKSRVTISVDTSKNQFSLRLSSVTAADTAVYYCARQGLTSSWYDGSGLDVWG
V domain 2: SYELTQPPSVSVSPGQTASITCSGDKLGNKYACWYQQRPGQSPVLVIYQDTKRPSGIPERFSGSNSGNTATLTISGTQAMDEADYYCQAWDSNTVVFGGGTKLTVL
B9: MPV487 (antibody, V domains shown)
VH: EVQLLESGGGLVQPGRSLRLSCTASGFTFDDYAMHWVRQLPGKGLEWVSGISWNSDNIGYADSVKGRFTISRDNGKNSLYLQMNSLRAEDTAFYYCAKDVRIDYDLLIGHIDYWGPGTLVTVSS
VL: TQSPVTLSLSPGERATLSCRASQSFGGYCAWYQQKPGQSPRLLIYDASNRATGVPARFSGSGSGTDFTLTISSLEPEDSAVYFCQQRGNWPIFGQGTRLEI
B10: MPV488 (antibody, V domains shown)
VH: EVQLVQSGFEVKKPGASVKVSCKASGYNFNNYGISWVRQAPGQGLEWMGWISAYTGNTNEAQKFQGRVSMTTDTSTSTAYMEVRSLRSDDTAVYYCARDIGSSMFYSYFYGMDVWGQGTTVIVSS
VL: SLSVSLGERATINCKSSESVLYNSNNENYLDWYQQKPGQPPKLLIYWASTRASGVPDRFSGSASGTDFTLTISSLQAEDVAVYYCQQYYSTPRTFGQGTKVEIK
B11: MPV482 (antibody, V domains shown)
VH: EVQLVQSGGGVVQPGRSLRLSCAASGFTFSSFAMHWVRQAPGKGLEWVALISDDGNNKYHADSVKGRFTISRDSSKNTLYLQMNSLRGEDTAVYYCARDGSVVGAAAHCDHWGQGTLVTVSS
VL: SYELTQPPSVSVSPGQTARITCSGDALPNQCAYWYQQKPGLAPVLLIYKDKERPSGIPERFSGSISGTTVTLTISGVQAEDEADYYCQSSDSSSTVVFGGGTKLTVL

Tests used:
Assay in all cases: ELISA on coated recombinant protein, OD 405 nm
[1] = target: hMPV A1 F monomer (human metapneumovirus)
[2] = target: hMPV A2 F (human metapneumovirus)
[3] = target: hMPV B2 F GCN4 (human metapneumovirus)
[4] = target: hMPV B2 F trimer (heated) (human metapneumovirus)
[5] = target: hMPV A1 F (human metapneumovirus)
[6] = target: hMPV B1 F (human metapneumovirus)
[7] = target: hMPV B2 F protein (his-tagged, not trypsin treated) (human metapneumovirus)
[8] = target: hMPV A1 F trimer (heated) (human metapneumovirus)
[9] = target: hMPV B2 F monomer (human metapneumovirus)

Binder	EC50 [1]	EC50 [2]	EC50 [3]	EC50 [4]	EC50 [5]	EC50 [6]	EC50 [7]	EC50 [8]	EC50 [9]
B1	3.5 µg/mL	0.42 µg/mL	0.69 µg/mL	1.8 µg/mL	1.4 µg/mL	0.49 µg/mL	0.61 µg/mL	1.8 µg/mL	–
B2	7 µg/mL	9.3 µg/mL	2.3 µg/mL	18 µg/mL	5 µg/mL	–	4.2 µg/mL	4.5 µg/mL	1.3 µg/mL
B3	0.18 µg/mL	0.083 µg/mL	0.12 µg/mL	–	0.3 µg/mL	0.073 µg/mL	5.7 µg/mL	–	0.21 µg/mL
B4	0.17 µg/mL	0.11 µg/mL	0.11 µg/mL	0.31 µg/mL	0.31 µg/mL	–	0.16 µg/mL	0.28 µg/mL	0.2 µg/mL
B5	1.3 µg/mL	2.2 µg/mL	0.5 µg/mL	1.7 µg/mL	1.5 µg/mL	2 µg/mL	2.1 µg/mL	1.1 µg/mL	0.48 µg/mL
B6	0.074 µg/mL	0.034 µg/mL	0.061 µg/mL	–	0.15 µg/mL	0.034 µg/mL	1.8 µg/mL	–	0.19 µg/mL
B7	0.053 µg/mL	0.12 µg/mL	0.061 µg/mL	0.65 µg/mL	0.38 µg/mL	0.12 µg/mL	0.37 µg/mL	0.26 µg/mL	0.06 µg/mL
B8	0.24 µg/mL	0.086 µg/mL	0.16 µg/mL	0.36 µg/mL	0.11 µg/mL	0.078 µg/mL	0.18 µg/mL	0.32 µg/mL	0.18 µg/mL
B9	0.13 µg/mL	0.1 µg/mL	0.071 µg/mL	0.54 µg/mL	0.11 µg/mL	0.065 µg/mL	0.37 µg/mL	–	0.099 µg/mL
B10	–	–	0.073 µg/mL	–	–	–	–	–	0.063 µg/mL
B11	0.29 µg/mL	0.057 µg/mL	0.092 µg/mL	–	0.13 µg/mL	0.072 µg/mL	0.33 µg/mL	0.35 µg/mL	0.2 µg/mL
